Measured values from patent US6486303 (UNIVERSITY OF MEDICINE AND DENTISTRY OF NEW JERSEY, dated 2002).

Molecular target: T1, rat LH receptor (rat, UniProt P16235 27-700)
T1 construct: whole, on cells; also called LH receptors
Assay: not described

T1 sequence (P16235 27-700): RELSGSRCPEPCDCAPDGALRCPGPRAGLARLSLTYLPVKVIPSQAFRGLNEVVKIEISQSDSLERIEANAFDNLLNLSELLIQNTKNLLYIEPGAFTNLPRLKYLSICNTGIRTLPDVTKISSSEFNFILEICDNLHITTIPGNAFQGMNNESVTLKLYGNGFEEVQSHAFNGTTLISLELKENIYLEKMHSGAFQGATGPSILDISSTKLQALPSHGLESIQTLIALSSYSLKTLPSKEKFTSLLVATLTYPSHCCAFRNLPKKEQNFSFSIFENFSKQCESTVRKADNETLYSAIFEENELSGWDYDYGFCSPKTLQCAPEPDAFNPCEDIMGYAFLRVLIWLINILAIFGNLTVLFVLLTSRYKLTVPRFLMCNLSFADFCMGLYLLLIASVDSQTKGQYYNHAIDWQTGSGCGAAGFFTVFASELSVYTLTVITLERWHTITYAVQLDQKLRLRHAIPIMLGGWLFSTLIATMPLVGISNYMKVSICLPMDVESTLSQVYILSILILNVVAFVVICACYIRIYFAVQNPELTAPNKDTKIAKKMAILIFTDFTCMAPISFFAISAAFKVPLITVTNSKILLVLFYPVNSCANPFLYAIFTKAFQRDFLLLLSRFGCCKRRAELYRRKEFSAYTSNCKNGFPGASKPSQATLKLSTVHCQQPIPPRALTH

B1: Fos-αδ52 + Jun-hCGβ′ heterodimer (ligand)
alpha: not shown
beta: SCGGRIARLEEKVKTLKAQNSELASTANMLREQVAQLKQKVMGLRPRCRPINATLAVEKEGCPVCITVNTTICAGYCPTMTRVLQGVLPALPQVVCNYRDVRFESIRLPGCPRGVNPVVSYAVALSCQCALCRRSTTDCGGPKDHPLTCDDPRFQDSSSSKAPPPSLPSPSRLPGPSDTPILPQ
modifications: The Cys of the N-terminal SCGG in each chain is meant to form an intersubunit disulfide.
notes: Secreted from co-transfected COS-7 cells; also called Fos-Jun hCGαδ2; copies: 1 + 1
  binding result: binds
